Laboratory results as given in patent US20240067720A1 (SHANGHAI JUNSHI BIOSCIENCES, published 2024).

Target: T1, hTIGIT expressed on Jurkat reporter cells (hTIGIT/NFAT-luciferase) (human, UniProt Q495A1 22-244)
T1 sequence (looked up): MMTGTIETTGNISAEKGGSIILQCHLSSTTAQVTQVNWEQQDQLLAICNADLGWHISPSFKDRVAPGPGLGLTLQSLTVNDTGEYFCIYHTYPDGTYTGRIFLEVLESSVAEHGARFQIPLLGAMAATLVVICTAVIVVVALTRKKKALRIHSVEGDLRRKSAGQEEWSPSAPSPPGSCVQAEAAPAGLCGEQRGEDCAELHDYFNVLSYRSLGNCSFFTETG
Test: cell-based or functional assay

B1: humanized anti-TIGIT monoclonal antibody hu20 (antibody, human IgG4 S228P, kappa, V domains shown)
VH: QVQLVQSGAEVKKPGASVKVSCKTSGYAFTEYTMHWVRQAPGKGLEWMGGINPNTGGTTYNQKFQGRVTLTVDKSSSTAYMELSSLRSEDTVVYYCAKLLRLMYYFDYWGQGTLVTVSS
VL: DIQMTQSPSSLSASVGDRVTITCQASQDVRTAVAWYQQKPGKAPKLLIYSASYRYTGVPSRFSGSGSGTDFTFTISSLQPEDIATYYCHQHYITPWTFGGGTKVEIKR
- EC50 of T cell activation; luminescence of Jurkat hTIGIT/NFAT-luciferase reporter cells co-cultured with CHO cells expressing hPVRL2: 0.0424 µg/mL
